Experimental data: the supplement of paper PMC7125110
± gives the standard error. For part of these data: Fewer inactive variants are shown than the library holds.

B1: glmS ribozyme (parent)
chain: AUAAAAGCGCCAGAACUACAGAAAUGUAGUUGACGAGGAGGAGGUUUAUCGAAUUUUCGGCGGAUGCCUCCAAA

Tests used:
Settings in all cases: with glucosamine-6-phosphate
[1] = variants of: B1; assay: kcat; higher = faster cleavage; RNA array
Method in brief: (§1)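 Glucosamine-6-phosphate (40 μM to 10 mM) in HEPES/KCl/Mg(OAc)2 buffer was flowed over sequenced MiSeq chips, and tiles were imaged over ~14 h. Barcoded ribozyme variants there had been transcribed in situ by E. coli RNA polymerase and were tracked through a hybridised Cy3 probe at 37 °C. One- or two-exponential decay fits to per-tile medians, normalised to baseline and to non-cleaving reference variants, gave kobs. kcat and KM came from weighted Michaelis–Menten fits across concentrations.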

[2] = variants of: B1; assay: KM; higher = weaker cofactor use; RNA array
Method in brief: as §1

[3] = variants of: B1; assay: self-cleavage kobs at 40 uM GlcN6P; higher = faster cleavage; RNA array
Method in brief: as §1

[4] = variants of: B1; assay: self-cleavage kobs at 160 uM GlcN6P; higher = faster cleavage; RNA array
Method in brief: as §1

[5] = variants of: B1; assay: self-cleavage kobs at 640 uM GlcN6P; higher = faster cleavage; RNA array
Method in brief: as §1

[6] = variants of: B1; assay: self-cleavage kobs at 2500 uM GlcN6P; higher = faster cleavage; RNA array
Method in brief: as §1

[7] = variants of: B1; assay: self-cleavage kobs at 10000 uM GlcN6P; higher = faster cleavage; RNA array
Method in brief: as §1

| Variant | kcat [1] | KM [2] | self-cleavage kobs at 40 uM GlcN6P [3] | self-cleavage kobs at 160 uM GlcN6P [4] | self-cleavage kobs at 640 uM GlcN6P [5] | self-cleavage kobs at 2500 uM GlcN6P [6] | self-cleavage kobs at 10000 uM GlcN6P [7] |
| --- | --- | --- | --- | --- | --- | --- | --- |
| AUAAAAGCGCCAGAACUACAGAAAUGUAGUUGACGAGGAGGAGGGUUAUCGAAUUUUCGGCGGAUGCCUCUAAA [U45G C71U] | 0.00857 ± 0.0011 s⁻¹ | 2380 ± 450 µM | 0.000147 ± 1.7e-05 s⁻¹ | 0.000517 ± 8.8e-05 s⁻¹ | 0.00152 ± 0.00031 s⁻¹ | 0.00519 ± 0.00062 s⁻¹ | 0.00653 ± 0.0008 s⁻¹ |
| AUAAAAGCGCCAGAACUACAGAAAUGUAGUUGACGAGGAGGAGGGUUAUCGAAUGUUCGGCGGAUGCCUCCAAA [U45G U55G] | 0.00804 ± 0.002 s⁻¹ | 2970 ± 1000 µM | 0.000146 ± 1.5e-05 s⁻¹ | 0.000304 ± 4.5e-05 s⁻¹ | 0.00148 ± 0.00024 s⁻¹ | 0.00365 ± 0.00057 s⁻¹ | 0.00624 ± 0.00057 s⁻¹ |
| AUAAAAGCGCCAGAACUACAGAAAUGUAGUUGACGAGGAGGAGGUAUAUCGAAUUUUCGGCGGCUGCCUCCAAA [U46A A64C] | 4.04e-05 ± 4.1e-06 s⁻¹ | – | < 1e-05 s⁻¹ | – | – | – | – |
| AUAAAAGCGCCAGAACUACAGAAAUGUAGUUGACGAGGAGGAGGUAUAUCGAAUUUUCGGCGGGUGCCUCCAAA [U46A A64G] | 0.00469 ± 0.0011 s⁻¹ | 2700 ± 990 µM | 0.000102 ± 2.3e-05 s⁻¹ | – | 0.000754 ± 0.00015 s⁻¹ | 0.00242 ± 0.00047 s⁻¹ | 0.00373 ± 0.00065 s⁻¹ |
| AUAAAAGCGCCAGAACUACAGAAAUGUAGUUGACGAGGAGGAGGUAUAUCGAGUUUUCGGCGGAUGCCUCCAAA [U46A A53G] | 0.00162 ± 0.00057 s⁻¹ | – | 8.49e-05 ± 1.5e-05 s⁻¹ | 0.000201 ± 3.7e-05 s⁻¹ | 0.000508 ± 8.1e-05 s⁻¹ | 0.00104 ± 0.00016 s⁻¹ | 0.00261 ± 0.00051 s⁻¹ |
| AUAAAAGCGCCAGAACUACAGAAAUGUAGUUGACGAGGAGGAGGUAUAUCGAAUUUUCGGUGGAUGCCUCCAAA [U46A C61U] | < 1e-05 s⁻¹ | – | – | < 1e-05 s⁻¹ | < 1e-05 s⁻¹ | < 1e-05 s⁻¹ | – |
| AUAAAAGCGCCAGAACUACAGAAAUGUAGUUGACGAGGAGGAGGUAUAUCGAAUUUUCGGCGGAUGCCUCCAAA [U46A] | 0.00402 ± 0.00054 s⁻¹ | 1880 ± 330 µM | 9.25e-05 ± 2.1e-06 s⁻¹ | 0.000271 ± 1.3e-05 s⁻¹ | 0.000926 ± 2.8e-05 s⁻¹ | 0.00341 ± 0.00031 s⁻¹ | 0.00344 ± 9.1e-05 s⁻¹ |
| AUAAAAGCGCCAGAACUACAGAAAUGUAGUUGACGAGGAGGAGGGUUAUCGAAAUUUCGGCGGAUGCCUCCAAA [U45G U54A] | 0.00862 ± 0.0024 s⁻¹ | 2110 ± 950 µM | 0.000294 ± 6.7e-05 s⁻¹ | 0.000437 ± 0.00014 s⁻¹ | 0.00206 ± 0.00071 s⁻¹ | 0.00456 ± 0.0014 s⁻¹ | 0.00721 ± 0.0012 s⁻¹ |
| AUAAAAGCGCCAGAACUACAGAAAUGUAGUUGACGAGGAGGAGGGUUAUCGUAUUUUCGGCGGAUGCCUCCAAA [U45G A52U] | 0.000421 ± 0.0001 s⁻¹ | – | < 1e-05 s⁻¹ | < 1e-05 s⁻¹ | – | 7.57e-05 ± 2e-05 s⁻¹ | 0.000189 ± 3e-05 s⁻¹ |
| AUAAAAGCGCCAGAACUACAGAAAUGUAGUUGACGAGGAGGAGGGUUAUCGAAUUUUCGGCGGAUGCCUUCAAA [U45G C70U] | 0.00681 ± 0.0021 s⁻¹ | 562 ± 260 µM | 0.000542 ± 5.6e-05 s⁻¹ | 0.00139 ± 0.00018 s⁻¹ | 0.00288 ± 0.0004 s⁻¹ | 0.00473 ± 0.00096 s⁻¹ | 0.0102 ± 0.0013 s⁻¹ |
| AUAAAAGCGCCAGAACUACAGAAAUGUAGUUGACGAGGAGGAGGGUUAUCGAAUUUUCGGCGGAUGCCUACAAA [U45G C70A] | 0.000251 ± 5.4e-05 s⁻¹ | – | – | – | 0.000111 ± 2.5e-05 s⁻¹ | 0.000364 ± 0.00011 s⁻¹ | 0.000215 ± 4.3e-05 s⁻¹ |
| AUAAAAGCGCCAGAACUACAGAAAUGUAGUUGACGAGGAGGAGGUAUAUCGAAUUUUAGGCGGAUGCCUCCAAA [U46A C58A] | 2.63e-05 ± 4.4e-06 s⁻¹ | – | – | – | – | – | – |
| AUAAAAGCGCCAGAACUACAGAAAUGUAGUUGACGAGGAGGAGGGUUAUCGAAUUUUCGGCGGAAGCCUCCAAA [U45G U65A] | 0.0042 ± 0.00043 s⁻¹ | 1990 ± 290 µM | 8.89e-05 ± 2.1e-05 s⁻¹ | 0.000296 ± 5.3e-05 s⁻¹ | 0.001 ± 0.00012 s⁻¹ | 0.00264 ± 0.0004 s⁻¹ | 0.00326 ± 0.00059 s⁻¹ |
| AUAAAAGCGCCAGAACUACAGAAAUGUAGUUGACGAGGAGGAGGGUUAUCGAAUUUUAGGCGGAUGCCUCCAAA [U45G C58A] | 0.000297 ± 2.9e-05 s⁻¹ | 3170 ± 620 µM | – | – | 4.61e-05 ± 9.8e-06 s⁻¹ | 0.000147 ± 2.3e-05 s⁻¹ | 0.00022 ± 2.6e-05 s⁻¹ |
